Experimental data published in IntAct's records for PubMed 19017275.

B1: Phosphothreonine lyase OspF (Shigella flexneri), Q8VSP9 (parent)
chain: MPIKKPCLKLNLDSLNVVRSEIPQMLSANERLKNNFNILYNQIRQYPAYYFKVASNVPTYSDICQSFSVMYQGFQIVNHSGDVFIHACRENPQSKGDFVGDKFHISIAREQVPLAFQILSGLLFSEDSPIDKWKITDMNRVSQQSRVGIGAQFTLYVKSDQECSQYSALLLHKIRQFIMCLESNLLRSKIAPGEYPASDVRPEDWKYVSYRNELRSDRDGSERQEQMLREEPFYRLMIE
partner: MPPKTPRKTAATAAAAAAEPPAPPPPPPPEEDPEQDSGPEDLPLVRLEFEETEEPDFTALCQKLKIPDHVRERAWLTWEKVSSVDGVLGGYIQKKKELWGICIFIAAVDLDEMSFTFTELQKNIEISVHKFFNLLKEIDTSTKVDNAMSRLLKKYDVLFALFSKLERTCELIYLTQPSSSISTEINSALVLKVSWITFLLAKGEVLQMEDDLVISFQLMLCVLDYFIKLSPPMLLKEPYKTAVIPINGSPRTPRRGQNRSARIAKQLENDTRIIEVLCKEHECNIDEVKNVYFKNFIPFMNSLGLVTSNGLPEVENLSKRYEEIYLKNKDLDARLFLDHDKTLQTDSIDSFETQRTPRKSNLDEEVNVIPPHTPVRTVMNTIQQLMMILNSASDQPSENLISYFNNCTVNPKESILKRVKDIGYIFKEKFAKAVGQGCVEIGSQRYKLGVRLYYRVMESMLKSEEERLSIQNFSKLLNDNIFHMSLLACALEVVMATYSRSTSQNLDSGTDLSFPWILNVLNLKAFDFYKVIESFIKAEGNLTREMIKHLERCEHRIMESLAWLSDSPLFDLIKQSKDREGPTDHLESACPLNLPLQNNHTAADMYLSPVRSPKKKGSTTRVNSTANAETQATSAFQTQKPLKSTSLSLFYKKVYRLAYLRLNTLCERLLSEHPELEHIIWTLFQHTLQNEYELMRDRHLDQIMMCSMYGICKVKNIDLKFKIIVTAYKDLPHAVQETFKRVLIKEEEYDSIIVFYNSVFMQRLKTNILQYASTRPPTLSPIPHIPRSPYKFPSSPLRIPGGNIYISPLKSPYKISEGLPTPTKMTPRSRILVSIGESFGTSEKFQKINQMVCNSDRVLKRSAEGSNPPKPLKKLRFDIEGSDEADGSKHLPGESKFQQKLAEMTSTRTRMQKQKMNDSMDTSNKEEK

Variants of: B1
Settings: with rb_human RB1, P06400

Row | Variant | effect of a mutation on the interaction
1 | I178R;C180G;E182A | decreasing interaction strength
